The nature of the data set: protein stability index of a GFP-peptide fusion (GPS, HEK-293T) (PSI 1-6); higher = more stable.
Where [1] appears, read: treatment: DMSO, c terminus: a fixed tail appended.
Where [2] appears, read: treatment: MLN4924 1 uM, 8 h, c terminus: a fixed tail appended.
Where [3] appears, read: treatment: DMSO, c terminus: native.
Setting [4] is: treatment: MLN4924 1 uM, 8 h, c terminus: native.

± gives the standard deviation.

For 52 sequences, protein stability index results are on record in the supplement of paper PMC10567573.
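Note: 24-mer peptide tiles fused after GFP, lentivirally expressed, FACS-sorted into six equal bins by GFP/DsRed ratio, decoded by Illumina sequencing, PSI is the read-weighted mean bin number.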

Consider LKISPVTLKEAYVQKLVKVCTDTD [TENT5C], for which the protein stability index by setting is: under setting [1], 2.94 ± 0.16; under setting [2], 2.91 ± 0.14.
The corresponding values for VELHYEEGSPRNLGTPTSSTPRPS [C2CD2L] are 4.63 ± 0.48 and 4.48 ± 0.32.
The corresponding values for ESKKHQVETAFERLQQELEQQRCL [TRIM15] are 4.61 ± 0.31 and 4.53 ± 0.12.
The like results for MPDYMILQELKKLKNSNYESIQQT [PPTC7] were, in that order, 2.5 ± 0.41 and 2.93 ± 0.39.
Regarding DIKQLIAKKIKLTAEAEELKPFFM [SOAT1], the protein stability index was found to be 2.59 ± 0.59 under setting [1] and 2.15 ± 0.1 under setting [2].
The like results for RSRKVSCPLTRSNGDLSRSLSPSP [FCHO1] were, in that order, 4.04 ± 0.45 and 4.08 ± 0.15.
The corresponding values for YHINSISVNSDCETYMSADDLRIN [PPP2R2C] are 2.89 ± 0.44 and 3.2 ± 0.29.
The like results for AALSEENTGKTYFFVANKYWRYDE [MMP1] were, in that order, 2.49 ± 0.37 and 2.21 ± 0.18.
Consider ASASCSHWRECLFYPALWPQLRIC [FBXO33], for which the protein stability index was determined as 2.44 ± 0.53 under setting [1] and 2.23 ± 0.39 under setting [2].
The corresponding values for DESAIDFSAYIDSMAAVPTLELCH [CEBPD] are 3.17 ± 0.26 and 3.31 ± 0.17.
On to MNRSIPVEVDESEPYPSQLLKPIP [TRAF3IP2], for which the protein stability index worked out at 4.44 ± 0.19 under setting [1] and 4.45 ± 0.34 under setting [2].
Consider QYEGHVNEYAYLPLHVHEEEGILV [DCAF4], for which the protein stability index turned out to be 3.19 ± 0.13 under setting [1] and 3.17 ± 0.27 under setting [2].
Consider NLVAGCLQLNARSFMMGQGGEAAH [NEUROD6], for which the protein stability index runs as follows: under setting [1], 2.34 ± 0.22; under setting [2], 2.02 ± 0.11.
The like results for VLSLLSLEPAQRPPLSHIMAQPLC [NEK8] were, in that order, 2.17 ± 0.15 and 2.3 ± 0.099.
In the case of PPNADLEQGFQEGVPNASVIMQVP [MFF], the protein stability index runs as follows: under setting [1], 4.83 ± 0.18; under setting [2], 4.72 ± 0.33.
The sequence LQHLIGLSNLTHVLYPVPLESYED [PRAME] returned a protein stability index under setting [1] of 2.3 ± 0.24 and a protein stability index under setting [2] of 2.54 ± 0.12.
For ELGEEAMEKFREDEGFIKEEERPL [KCNA1], the protein stability index under setting [1] is 5.6 ± 0.31 and the protein stability index under setting [2] worked out at 5.63 ± 0.2.
The corresponding values for KSTSKYIYQTLFLNGENSDIKICA [GMCL1] are 2.06 ± 0.65 and 3.41 ± 1.3.
The corresponding values for SREITTLANNQCMATESVDHELGR [EHMT1] are 4.8 ± 0.28 and 4.84 ± 0.26.
The corresponding values for IDASQLPHRVLETRGHAISILFGF [SMIM2] are 2.68 ± 0.54 and 2.51 ± 0.54.
AAHLALLLLCGTISLRVYRKVLQA [RTN2]: the protein stability index is, setting by setting: under setting [1], 2.49 ± 0.33; under setting [2], 2.51 ± 0.73.
The like results for CIHTGLSQYIAVEAAEGRNKNEVF [FBXO3] were, in that order, 3.38 ± 0.49 and 3.48 ± 0.19.
The corresponding values for AYFAGNQKQLEQTLQQFNIKLRPP [ARFIP2] are 2.63 ± 0.16 and 2.76 ± 0.29.
The like results for LGLTQNPEGQKVLFVTFLLIYMVT [OR4A15] were, in that order, 2.75 ± 0.66 and 3.33 ± 1.1.
Consider KMNLYESFAQATQLGDLHTCLMMD [INTS3], for which the protein stability index worked out at 2.5 ± 0.2 under setting [1] and 2.58 ± 0.37 under setting [2].
The like results for VRTTRGKRKRVDVEESEASSSVSI [LMNB1] were, in that order, 5.13 ± 0.17 and 5.09 ± 0.44.
In the case of LLASVPSNPNGNGGFMGYSAENIP [CRY1], the protein stability index is, setting by setting: under setting [1], 3.52 ± 0.45; under setting [2], 3.41 ± 0.23.
The like results for LIERERSALGPNVTKITLESFLAW [ZC3H15] were, in that order, 2.19 ± 0.47 and 2.49 ± 0.14.
On to GETRICKIYDSPCLPEAEAMFAIN [RAD51], for which the protein stability index reads like this: under setting [1], 3.53 ± 0.4; under setting [2], 3.65 ± 0.35.
The corresponding values for RKRRRNGSKEGNHHSTQPKRNKRN [FAM104B] are 5.22 ± 0.38 and 4.92 ± 0.48.
The like results for NYDKLSRSIRQYYKKGIIRKPDIS [SPDEF] were, in that order, 2.55 ± 0.21 and 2.74 ± 0.34.
YECGVCAKKFMWRDSFMRHRGHCE [ZBTB22]: the protein stability index came to 5 ± 0.16 under setting [1] and 4.99 ± 0.17 under setting [2].
Take GRKQPGVHEEPVLKKWPKLKSKK [C22orf31]: the protein stability index runs as follows: under setting [3], 5.16 ± 0.26; under setting [4], 5.08 ± 0.24.
Take CFRMQINHAIDIICGFLKERCFRG [OAS1]: the protein stability index runs as follows: under setting [1], 2.44 ± 0.66; under setting [2], 2.61 ± 0.36.
The like results for ENHQPVSLSDLEIQASAGVISKKA [ZNF75A] were, in that order, 4.94 ± 0.19 and 4.98 ± 0.39.
The like results for TYRIENYTPDLPRADVDHAIEKAF [MMP1] were, in that order, 3.4 ± 0.18 and 3.39 ± 0.31.
TIDKQREEMAKSSRASAARVGQLQ [LRRC45]: the protein stability index by setting is: under setting [1], 4.67 ± 0.14; under setting [2], 4.73 ± 0.14.
The like results for TRNVQSVSIIDTELKVKDSQPIDL [TRIP13] were, in that order, 4.32 ± 0.16 and 4.55 ± 0.19.
The like results for YFYDPIERDIEIGFLPWLMNEVEK [RSPH3] were, in that order, 2.04 ± 0.74 and 2.42 ± 0.25.
As to EELQSWVRGHHPKSGEEAVTVLED [ZNF232], the protein stability index reads like this: under setting [1], 5.09 ± 0.38; under setting [2], 5.07 ± 0.39.
With STICFGQGAARGFKSNKKKTKQC [ZNF511], the protein stability index runs as follows: under setting [3], 4.86 ± 0.14; under setting [4], 4.71 ± 0.32.
Regarding QALQAGPEGARRGLGVLRALGSRG [FANCE], the protein stability index was determined as 4.38 ± 0.33 under setting [1] and 4.31 ± 0.26 under setting [2].
The corresponding values for GTQFTFDQDPSVLYFSIHRYEQGR [HDAC6] are 2.31 ± 0.51 and 2.52 ± 0.34.
For the sequence ETTGIQIWSEVFTVEKPGGKKVAV [ATL3], the protein stability index runs as follows: under setting [1], 2.79 ± 0.24; under setting [2], 3.01 ± 0.2.
In the case of AMEPDRKAAVSHWQQQSYLDSGIH [CTNNB1], the protein stability index under setting [1] came to 3.91 ± 0.31 and the protein stability index under setting [2] was 3.95 ± 0.32.
The like results for LPDVEPAAFLALLRFLYSDEVQIG [BTBD1] were, in that order, 2.16 ± 0.43 and 2.28 ± 0.28.
The corresponding values for VNAVLTQIDQIKRHSNVVILTTSN [TRIP13] are 1.92 ± 0.46 and 1.95 ± 0.24.
The like results for SLHHTSECTQMDHLGCMHYTVRAP [ALDH8A1] were, in that order, 3.04 ± 0.13 and 3.06 ± 0.25.
As for PASDLEAALEAAGEGLNVIQQTTR [NANOGP8], the protein stability index is 4.93 ± 0.17 under setting [1] and 4.95 ± 0.44 under setting [2].
The like results for GVVMKVRIPTCHDKPGTTQIVQLT [DENND6A] were, in that order, 2.02 ± 0.19 and 2.15 ± 0.4.
The like results for YSQDPVYANGGLNYSYRGYGALSS [NOL4L] were, in that order, 2.4 ± 0.23 and 2.71 ± 0.2.
The like results for HTGERPFQCNQCGASFTQKGNLLR [IKZF1] were, in that order, 2.21 ± 0.29 and 2.79 ± 0.52.
